The chains are these.
B1: Gal4 DNA-binding domain-fused cBRC1-HCR-BRC2 (canine BRCA2 993–1248 aa) [canine (Canis lupus familiaris)] / VP16-fused canine RAD51 [canine] (parent complex)
chain 1: PISNHSFENGFKTASNKEIKLSENNIRKSKMLFKDIEEHYPTNLACLEIVNTSSLESQKKPSKSHALDPQSINIISGFVQNSTYVSDSESGHTAPPTLSLKQDFDSNRNLTPSQKAEITELSTILEESGSQFEFTQFRKPSHIIQKNPFEMPENQLTILNSTSKEWKDDDLHLTTNAPSISQVDSKKSEGIIGGKQKFACLSRTSCNRSASGYSTDKNEVEFRGFYSARGTKLNVGSEALQKAKKLFSDLENINEE
chain 2: MAMQMQLEANADTSVEEESFGPQPISRLEQCGINANDVKKLEEAGFHTVEAVAYAPKKELISIKGISEAKADKILTEAAKLVPMGFTTATEFHQRRSEIIQITTGSKELDKLLQGGIETGSITEMFGEFRTGKTQICHTLAVTCQLPIDRGGGEGKAMYIDTEGTFRPERLLAVAERYGLSGSDVLDNVAYARGFNTDHQTQLLYQASAMMVESRYALLIVDSATALYRTDYSGRGELSARQMHLARFLRMLLRLADEFGVAVVITNQVVAQVDGAAMFAADPKKPIGGNIIAHASTTRLYLRKGRGETRICKIYDSPCLPEAEAMFAINADGVGDAKD
B2: FLAG-HA-NLS-fused cBRC1-HCR-BRC2 (canine BRCA2 993–1248 aa) [canine (Canis lupus familiaris)] / endogenous RAD51 (HeLa cells) [human (endogenous in HeLa)] (parent complex)
chain 1: B1 chain 1
chain 2: B1 chain 2 with S62N, T76A, G194A

Substitutions are numbered along the chain they refer to.

One assay covers variants of B1. The assay can be described thus: mammalian two-hybrid assay; n = 4; parent: 3.1; read off a plot.
On to chain 1 PISNHSFENGFKTASNKEIKLSENNIRKSKMLFKDIEEHYPTNLACLEIVNTSSLESQKKPSKSHALDPQSINIISGFVQNSTYVSDSESGHTAPPTLSLKQDFDSNRNLTPSQKAEITELPTILEESGSQFEFTQFRKPSHIIQKNPFEMPENQLTILNSTSKEWKDDDLHLTTNAPSISQVDSKKSEGIIGGKQKFACLSRTSCNRSASGYSTDKNEVEFRGFYSARGTKLNVGSEALQKAKKLFSDLENINEE [chain 1 S122P], for which the response was about 2.6 Firefly/Renilla.
Consider chain 1 PISNHSFENGFKTASNKEIKLSENNIRKSKMLFKDIEEHYPTNLACLEIVNTSSLESQKKPSKSHALDPQSINIISGFVQNSTYVSDSESGHTAPPTLSLKQDFDSNRNLTPSQKAEMTELSTILEESGSQFEFTQFRKPSHIIQKNPFEMPENQLTILNSTSKEWKDDDLHLTTNAPSISQVDSKKSEGIIGGKQKFACLSRTSCNRSASGYSTDKNEVEFRGFYSARGTKLNVGSEALQKAKKLFSDLENINEE [chain 1 I118M], for which the response is about 3.3 Firefly/Renilla.
Same read-out and setting: the same measure for chain 1 PISNHSFENGFKTASNKEIKLSENNIRKSKMLFKDIEEHYPTNLACLEIVNTSSLESQKKPSKSHALDPQSINIISGFVQNSTYVSDSESGHTAPPTLSLKQDFDSNRNLTPSQKAEITELSPILEESGSQFEFTQFRKPSHIIQKNPFEMPENQLTILNSTSKEWKDDDLHLTTNAPSISQVDSKKSEGIIGGKQKFACLSRTSCNRSASGYSTDKNEVEFRGFYSARGTKLNVGSEALQKAKKLFSDLENINEE [chain 1 T123P]: about 2 Firefly/Renilla.

The variants in the next assay derive from B2. The assay can be described thus: co-immunoprecipitation (anti-FLAG IP, Western blot quantification); lysates from HeLa cells stably expressing the FLAG-HA-NLS-fused peptide; parent: 1. On the technique in general: Immunoblotting shows a protein as a band on a membrane.
As to chain 1 PISNHSFENGFKTASNKEIKLSENNIRKSKMLFKDIEEHYPTNLACLEIVNTSSLESQKKPSKSHALDPQSINIISGFVQNSTYVSDSESGHTAPPTLSLKQDFDSNRNLTPSQKAEITELPTILEESGSQFEFTQFRKPSHIIQKNPFEMPENQLTILNSTSKEWKDDDLHLTTNAPSISQVDSKKSEGIIGGKQKFACLSRTSCNRSASGYSTDKNEVEFRGFYSARGTKLNVGSEALQKAKKLFSDLENINEE [chain 1 S122P], the ratio to parent was 0.52.
The same measure, in the same setting: in the case of chain 1 PISNHSFENGFKTASNKEIKLSENNIRKSKMLFKDIEEHYPTNLACLEIVNTSSLESQKKPSKSHALDPQSINIISGFVQNSTYVSDSESGHTAPPTLSLKQDFDSNRNLTPSQKAEITELSPILEESGSQFEFTQFRKPSHIIQKNPFEMPENQLTILNSTSKEWKDDDLHLTTNAPSISQVDSKKSEGIIGGKQKFACLSRTSCNRSASGYSTDKNEVEFRGFYSARGTKLNVGSEALQKAKKLFSDLENINEE [chain 1 T123P] it was 0.57.
With chain 1 PISNHSFENGFKTASNKEIKLSENNIRKSKMLFKDIEEHYPTNLACLEIVNTSSLESQKKPSKSHALDPQSINIISGFVQNSTYVSDSESGHTAPPTLSLKQDFDSNRNLTPSQKAEMTELSTILEESGSQFEFTQFRKPSHIIQKNPFEMPENQLTILNSTSKEWKDDDLHLTTNAPSISQVDSKKSEGIIGGKQKFACLSRTSCNRSASGYSTDKNEVEFRGFYSARGTKLNVGSEALQKAKKLFSDLENINEE [chain 1 I118M], the ratio to parent was found to be 0.92.

Source of the values: publication PMC9959916, “A Highly Conserved Region in BRCA2 Suppresses the RAD51-Interaction Activity of BRC Repeats” (Veterinary Sciences, 2023).
